We go through three molecules from publication PMC8605242, “Multiple variants of the human presequence translocase motor subunit Magmas govern the mitochondrial import” (The Journal of Biological Chemistry, 2021).

A value given as a limit tells only on which side of the number the result lay.

First the molecules themselves.
B1: hexahistidine tagged Magmas-2 (natural protein, human, UniProt I3L1U7 1-129, looked up)
chain: MAKYLAQIIVMGVQVVGRAFARALRQEFAASRAAADARGRAGHRSAAASNLSGLSLQEAQQILNVSKLSPEEVQKNYEHLFKVNDKSVGGSFYLQSKRSGLSMLPKLISNSWPQAILLPWPPKTLGLHA
B2: DnaJC15J+T (domain or fragment)
chain: not shown
notes: DnaJC15, human J-protein, N-terminal truncation with the J-domain and predicted MTS (J + T), amino acids 69-146; also called hexahistidine tagged DnaJC15J+T
B3: DnaJC19J+T (domain or fragment)
chain: not shown
notes: DnaJC19, human J-protein, N-terminal truncation with the J-domain and predicted MTS (J + T), amino acids 34-112; also called hexahistidine tagged DnaJC19J+T

The target of the test “DnaJC19J+T” is B3. As to the kind of experiment: cell-based or functional assay.
The test “DnaJC15J+T” concerns the target B2. Description: cell-based or functional assay.
A further test addresses T1, GST-Magmas (human, UniProt Q9Y3D7 1-125).
T1 construct: Magmas, human, full length; vector pGEX-KG; also called GST tagged Magmas; source: E. coli (C41), purified
T1 sequence (looked up): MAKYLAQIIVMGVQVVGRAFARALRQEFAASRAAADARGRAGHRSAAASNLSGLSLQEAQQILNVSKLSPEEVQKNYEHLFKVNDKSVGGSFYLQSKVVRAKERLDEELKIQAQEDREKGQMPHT
Description: pull-down; 1 μM GST alone or GST-Magmas variants held on beads, increasing concentrations of DnaJC19J+T or DnaJC15J+T, 45 min, 24 °C; 50 mM Tris-HCl pH 7.5, 100 mM KCl, 0.2% Triton-X 100, 10% glycerol, 1 mM PMSF; blocked with 0.1% BSA; SDS-PAGE, Coomassie, densitometry. The settings on record: both partners purified.

In a further test the target is T2, GST-Magmas-1 (human, UniProt I3L3T0 1-145).
T2 construct: Magmas-1, human variant of Magmas with a unique N-terminal extension, full length; UniProt entry I3L3T0; vector pGEX-KG; also called GST tagged Magmas-1; source: E. coli (C41), purified
T2 sequence (looked up): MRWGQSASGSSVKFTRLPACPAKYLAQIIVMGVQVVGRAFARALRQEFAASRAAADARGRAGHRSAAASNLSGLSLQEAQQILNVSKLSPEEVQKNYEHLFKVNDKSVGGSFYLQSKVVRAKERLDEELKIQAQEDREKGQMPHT
Described as above. Conditions: both partners purified.

Chain of DnaJC19J+T (Q96DA6 34-112): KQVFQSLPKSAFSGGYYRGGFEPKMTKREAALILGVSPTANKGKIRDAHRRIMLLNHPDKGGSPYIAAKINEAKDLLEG
Chain of DnaJC15J+T (Q9Y5T4 69-146): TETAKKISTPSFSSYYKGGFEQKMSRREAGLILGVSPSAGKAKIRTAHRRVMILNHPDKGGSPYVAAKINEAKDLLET

Turning to B1, in the test with DnaJC19J+T, the “inhibition of the DnaJC19J+T-stimulated ATP hydrolysis of mortalin, single turnover assay, Mortalin-ATP : J-protein : Magmas variant 1:2:4” value is > 90%. In the test with DnaJC15J+T, the “inhibition of the DnaJC15J+T-stimulated ATP hydrolysis of mortalin, single turnover assay, Mortalin-ATP : J-protein : Magmas variant 1:2:4” value is > 90%.
On to B2, for which, in the test with GST-Magmas, the binding result was “binds”.
For the molecule B3, the binding result with GST-Magmas and with GST-Magmas-1 was “binds” each time.
